Data published in PMC11533501.

How the values were obtained:
[1] = target: dynamic microtubules grown from coverslip-anchored biotinylated GMPcPP seeds (bovine brain tubulin) (bovine) (UniProt Q6B856); assay: laser trap rupture force assay; kinetochore particles sparsely on anti-His polystyrene beads, attached near the tips of dynamic microtubules grown from coverslip-anchored seeds; preload about 1 pN, then force ramp 0.25 pN/s until detachment; growth buffer (BRB80, 1 mM GTP, tubulin)
[2] = target: dynamic microtubules grown from coverslip-anchored biotinylated GMPcPP seeds (bovine brain tubulin) (bovine) (UniProt Q6B856); assay: laser trap bidirectional sliding friction assay; beads decorated sparsely with native kinetochore particles on the sides of coverslip-anchored dynamic microtubules; constant force 0.5-3 pN along the axis, direction reversed periodically; speeds at 1 ± 0.5 pN
[3] = target: dynamic microtubules grown from coverslip-anchored biotinylated GMPcPP seeds (bovine brain tubulin) (bovine) (UniProt Q6B856); assay: laser trap bidirectional sliding friction assay; anti-His beads densely coated with recombinant Ndc80c (about 3,000 complexes a bead, not single-molecule conditions) on the sides of coverslip-anchored dynamic microtubules; constant force along the axis, direction reversed; speeds at 1 ± 0.5 pN

mean rupture strength at microtubule minus ends [1] [pN]	mean rupture strength at microtubule plus ends [1] [pN]	mean sliding speed of side-attached beads under 1 pN toward the minus end [2] [nm·s^-1]	mean sliding speed of side-attached beads under 1 pN toward the plus end [2] [nm·s^-1]	mean sliding speed of side-attached beads under 1 pN toward the minus end [3] [nm·s^-1]	mean sliding speed of side-attached beads under 1 pN toward the plus end [3] [nm·s^-1]	Substance
3.3	9.7	674	109			native kinetochore particles isolated from yeast (Dsn1-6His-3Flag) (from UniProt P40568 1-576) (complex)
				464	130	recombinant human Ndc80 complex (from UniProt O14777 1-642; Q9BZD4 1-464; Q8NBT2 1-197; Q9HBM1 1-224)
